Reference: paper PMC12816671

How the values were obtained:
Ku70 SAP domain WT = Ku70 SAP domain WT (Homo sapiens, UniProt P12956 539-609); test: EMSA; 46 mM KCl; preferred over nucleosome; SAP EMSA: 105 mM KCl (400 bp) or 46 mM KCl (153 bp), 3 mM Tris-HCl pH 7.5, 0.1 mM EDTA, 3-4% glycerol, 15 min room temp, agarose (0.8% or 1.5%); Ku70/80 EMSA: 5; details: protein: recombinant; tags: none (His14-SUMObd cleaved)
Ku70/80-dSAP = Ku70/80-dSAP (Homo sapiens, UniProt P12956;P13010 1-544;1-732); test: EMSA; higher shift than full length, multiple loading; SAP EMSA: 105 mM KCl (400 bp) or 46 mM KCl (153 bp), 3 mM Tris-HCl pH 7.5, 0.1 mM EDTA, 3-4% glycerol, 15 min room temp, agarose (0.8% or 1.5%); Ku70/80 EMSA: 5; details: protein: recombinant; copies: 1;1
Ku70/80 full length = Ku70/80 full length (Homo sapiens, UniProt P12956;P13010 1-609;1-732); test: EMSA; SAP EMSA: 105 mM KCl (400 bp) or 46 mM KCl (153 bp), 3 mM Tris-HCl pH 7.5, 0.1 mM EDTA, 3-4% glycerol, 15 min room temp, agarose (0.8% or 1.5%); Ku70/80 EMSA: 5; details: protein: recombinant; copies: 1;1

Measured: binding result

Ku70 SAP domain WT, sequence (P12956 539-609): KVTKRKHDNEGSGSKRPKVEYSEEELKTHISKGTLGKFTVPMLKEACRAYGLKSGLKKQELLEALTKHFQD
Ku70/80-dSAP, sequence (P12956 1-544, chain 1 of 2): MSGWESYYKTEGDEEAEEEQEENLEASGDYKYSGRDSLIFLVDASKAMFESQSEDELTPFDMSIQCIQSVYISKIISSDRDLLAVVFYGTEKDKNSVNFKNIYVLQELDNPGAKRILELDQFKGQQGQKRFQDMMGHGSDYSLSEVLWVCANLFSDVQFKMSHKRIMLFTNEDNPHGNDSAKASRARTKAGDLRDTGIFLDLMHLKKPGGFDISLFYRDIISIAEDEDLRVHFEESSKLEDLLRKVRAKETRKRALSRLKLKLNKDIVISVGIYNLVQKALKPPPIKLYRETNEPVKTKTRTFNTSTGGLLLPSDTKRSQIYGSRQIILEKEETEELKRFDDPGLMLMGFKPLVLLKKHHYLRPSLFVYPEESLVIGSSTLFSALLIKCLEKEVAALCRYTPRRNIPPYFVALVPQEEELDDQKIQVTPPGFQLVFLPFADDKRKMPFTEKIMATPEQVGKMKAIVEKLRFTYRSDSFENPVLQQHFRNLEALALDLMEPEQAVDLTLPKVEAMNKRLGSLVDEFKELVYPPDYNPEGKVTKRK
Ku70/80-dSAP, sequence (P13010 whole entry, chain 2 of 2): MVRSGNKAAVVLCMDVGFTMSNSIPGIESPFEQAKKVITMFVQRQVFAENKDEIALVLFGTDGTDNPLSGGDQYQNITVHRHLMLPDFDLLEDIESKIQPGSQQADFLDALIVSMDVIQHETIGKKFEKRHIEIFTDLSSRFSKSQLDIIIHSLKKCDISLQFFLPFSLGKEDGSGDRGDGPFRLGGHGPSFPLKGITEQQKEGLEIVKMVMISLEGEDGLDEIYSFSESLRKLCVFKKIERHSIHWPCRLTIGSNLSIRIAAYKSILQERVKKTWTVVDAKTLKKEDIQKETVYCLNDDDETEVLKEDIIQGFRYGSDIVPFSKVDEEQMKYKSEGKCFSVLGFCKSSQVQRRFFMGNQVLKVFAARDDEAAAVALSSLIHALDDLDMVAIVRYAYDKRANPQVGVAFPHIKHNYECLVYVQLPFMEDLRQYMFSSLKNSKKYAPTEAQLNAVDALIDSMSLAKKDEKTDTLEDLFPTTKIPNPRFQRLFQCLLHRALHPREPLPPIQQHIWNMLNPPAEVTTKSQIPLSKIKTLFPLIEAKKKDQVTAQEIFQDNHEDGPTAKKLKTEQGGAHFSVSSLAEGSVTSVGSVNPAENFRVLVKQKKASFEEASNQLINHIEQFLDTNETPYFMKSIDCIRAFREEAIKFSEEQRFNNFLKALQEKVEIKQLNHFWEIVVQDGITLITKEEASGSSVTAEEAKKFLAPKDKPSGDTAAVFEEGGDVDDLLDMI
Ku70/80 full length, sequence (P12956 whole entry, chain 1 of 2): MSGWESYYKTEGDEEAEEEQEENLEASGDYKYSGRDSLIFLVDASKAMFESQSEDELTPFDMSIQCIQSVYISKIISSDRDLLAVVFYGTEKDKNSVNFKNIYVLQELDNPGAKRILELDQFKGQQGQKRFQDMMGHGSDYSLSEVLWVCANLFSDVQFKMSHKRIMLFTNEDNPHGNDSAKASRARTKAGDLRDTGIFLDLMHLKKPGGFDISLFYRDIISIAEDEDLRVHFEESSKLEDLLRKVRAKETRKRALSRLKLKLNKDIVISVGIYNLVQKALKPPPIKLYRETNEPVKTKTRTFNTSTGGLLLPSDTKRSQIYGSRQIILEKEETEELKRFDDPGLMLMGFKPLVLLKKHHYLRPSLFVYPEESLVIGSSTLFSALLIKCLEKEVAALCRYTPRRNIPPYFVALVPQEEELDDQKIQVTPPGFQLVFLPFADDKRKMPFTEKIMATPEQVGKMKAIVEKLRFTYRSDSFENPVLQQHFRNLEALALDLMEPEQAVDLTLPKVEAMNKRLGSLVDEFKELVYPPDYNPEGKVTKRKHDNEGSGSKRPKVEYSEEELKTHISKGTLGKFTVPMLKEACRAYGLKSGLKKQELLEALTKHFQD
Ku70/80 full length, sequence (P13010 whole entry, chain 2 of 2): as the sequence (P13010 whole entry, chain 2 of 2) above

B1: 153 bp free DNA (dsDNA)
DNA 1: ATCCTGGAGAATCCCGGTGCCGAGGCCGCTCAATTGGTCGTAGACAGCTCTAGCACCGCTTAAACGCACGTACGCGCTGTCCCCCGCGTTTTAACCGCCAAGGGGATTACTCCCTAGTCTCCAGGCACGTGTCAGATATATACATCCTGTGAT
DNA 2: ATCACAGGATGTATATATCTGACACGTGCCTGGAGACTAGGGAGTAATCCCCTTGGCGGTTAAAACGCGGGGGACAGCGCGTACGTGCGTTTAAGCGGTGCTAGAGCTGTCTACGACCAATTGAGCGGCCTCGGCACCGGGATTCTCCAGGAT
binds: Ku70 SAP domain WT | Ku70/80-dSAP | Ku70/80 full length
